From the RNAGym collection of RNA variant scans (doi:10.7554/elife.80360)

B1: CPEB3 Ribozyme (parent)
chain: GGGGGCCACAGCAGAAGCGUUCACGUCGCGGCCCCUGUCAGAUUCUGGUGAAUCUGCGAAUUCUGCUGU

Variants of: B1
Assay: self-cleavage, relative activity (ratio to wild type); higher = more cleavage; co-transcriptional

Row | Variant | self-cleavage
1 | GGCGGCCACAGCAGAAGCGUUCACGUCUCGGCCCCUGUCAGAUUCUGGUGAAUCUGCGAAUUCUGCUGU [G3C G28U] | 0.0508
2 | GGCGGCCACAGCAGAAGCGUUCACGUCGCGGCCCCUGUCAGAUUGUGGUGAAUCUGCGAAUUCUGCUGU [G3C C45G] | 0.0888
3 | GGCGGCCACAGCAGAAGCGUUCACGACGCGGCCCCUGUCAGAUUCUGGUGAAUCUGCGAAUUCUGCUGU [G3C U26A] | 0.0495
4 | GGCGGCCACUGCAGAAGCGUUCACGUCGCGGCCCCUGUCAGAUUCUGGUGAAUCUGCGAAUUCUGCUGU [G3C A10U] | 0.334
5 | GGUGGCCACAGCAGAAGCGUUCACGUCGCGGCCCCUGUCAGAUUCUGGUGGAUCUGCGAAUUCUGCUGU [G3U A51G] | 0.0734
6 | GGUGGCCACGGCAGAAGCGUUCACGUCGCGGCCCCUGUCAGAUUCUGGUGAAUCUGCGAAUUCUGCUGU [G3U A10G] | 0.158
7 | GGCGGCCACAGCAGAAGCGUUCACGUCGCGGCCCCUGUCAGAUUCUGAUGAAUCUGCGAAUUCUGCUGU [G3C G48A] | 0.117
8 | GGCGGCCACAGCAGAAGCGUUCUCGUCGCGGCCCCUGUCAGAUUCUGGUGAAUCUGCGAAUUCUGCUGU [G3C A23U] | 0.28
9 | GGCGGCCACAGCAGAAGCGUUCACGUCGCGGCCCCUGUCAGAUUCUGGUGAAUCUGCGAAUUCUGCUUU [G3C G68U] | 0.374
10 | GGUGGCGACAGCAGAAGCGUUCACGUCGCGGCCCCUGUCAGAUUCUGGUGAAUCUGCGAAUUCUGCUGU [G3U C7G] | 0.0286
11 | GGUGGCCACAGCAGAAGCGUUCCCGUCGCGGCCCCUGUCAGAUUCUGGUGAAUCUGCGAAUUCUGCUGU [G3U A23C] | 0.135
12 | GGUGGCCACAGCAGAAGCGUUCUCGUCGCGGCCCCUGUCAGAUUCUGGUGAAUCUGCGAAUUCUGCUGU [G3U A23U] | 0.344
13 | GGAGGCCACAGCAGAAGCGUUCACGUCGCGGCCCCUGUCAGAUUCUGGUGAAUCUGCGAAUUCUGCAGU [G3A U67A] | 0.778
14 | GGCGGCCACAGCAGAAGCGUUCACGUCGCGGCCCCUGUCAGACUCUGGUGAAUCUGCGAAUUCUGCUGU [G3C U43C] | 0.121
15 | GGCGGCCACAGCAGAAGCGUUCACGUCGCGGCCCCUGCCAGAUUCUGGUGAAUCUGCGAAUUCUGCUGU [G3C U38C] | 0.0718
16 | GGUGGCCACAGCAGAAGCGUUCACGUCGCGGCCCCUGUCAGAUUCUGGUGAAUCUGCGGAUUCUGCUGU [G3U A59G] | 0.0478
17 | GGCGGCCACAGCAGAAGCGUUCACGUCGCGGCCCCUGUCAGAUUCUGGUGUAUCUGCGAAUUCUGCUGU [G3C A51U] | 0.115
18 | GGCGGCCACAGCAGAAGCGUUCACGUCGCGGCCCCUGUCAGGUUCUGGUGAAUCUGCGAAUUCUGCUGU [G3C A42G] | 0.106
19 | GGCGGCCACAGCAGAAGCGUUCACGUCGCGGCCCCUGUCAGAUUCUGGUGAAUCUGCGAACUCUGCUGU [G3C U61C] | 0.0948
20 | GGCGGCCACAGCAGAAGCGUUCACGUCGCGGCCCCUGUCAGAUUCUGGUGAAUCUGCGAAAUCUGCUGU [G3C U61A] | 0.0406

Row | Variant | self-cleavage
21 | GGCGGCCACAGCAGAAGCGUUCACGUCGCGGCCUCUGUCAGAUUCUGGUGAAUCUGCGAAUUCUGCUGU [G3C C34U] | 0.45
22 | GGCGGCCACAGCAGAAGCGUUCACGUCGCGGCCACUGUCAGAUUCUGGUGAAUCUGCGAAUUCUGCUGU [G3C C34A] | 0.465
23 | GGCGGCCACAGCAGAAGCGUUCACGUCGCGGCCCAUGUCAGAUUCUGGUGAAUCUGCGAAUUCUGCUGU [G3C C35A] | 0.0343
24 | GGCGGCCACAGCAGAAGCGUUCACGUCGCGGCCCGUGUCAGAUUCUGGUGAAUCUGCGAAUUCUGCUGU [G3C C35G] | 0.0557
25 | GGCGGCCACAGCAGAAGCGUUCACGUCGCGGCCCCUGUCAGAUUCUGGUGAAUCUGCGAAUUCUACUGU [G3C G65A] | 0.117
26 | GGCGGCCACAGCAGUAGCGUUCACGUCGCGGCCCCUGUCAGAUUCUGGUGAAUCUGCGAAUUCUGCUGU [G3C A15U] | 0.0699
27 | GGCGGCCACAGCAGAAGCGUUCACGUCGCUGCCCCUGUCAGAUUCUGGUGAAUCUGCGAAUUCUGCUGU [G3C G30U] | 0.0314
28 | GGUGGCCACAGCAGAAGCGUUCACGUCGCGGCCCCUGUCCGAUUCUGGUGAAUCUGCGAAUUCUGCUGU [G3U A40C] | 0.0469
29 | GGCGGCCACAGCAGAAGCGUUCACGUCGCGGCCCCUGUCAGAUUCUGGUGAAUCUGCGAAUUCUGCUGA [G3C U69A] | 0.209
30 | GGUGGCCAUAGCAGAAGCGUUCACGUCGCGGCCCCUGUCAGAUUCUGGUGAAUCUGCGAAUUCUGCUGU [G3U C9U] | 0.521
31 | GGUGGCCAAAGCAGAAGCGUUCACGUCGCGGCCCCUGUCAGAUUCUGGUGAAUCUGCGAAUUCUGCUGU [G3U C9A] | 0.655
32 | GGCGGCCACAGCAGAAGCGUUCACGUCGCGGCCCCUGUCAGAUUCGGGUGAAUCUGCGAAUUCUGCUGU [G3C U46G] | 0.068
33 | GGCGGCCACAGCAGAAGCGUUCACGUCGCGGCCCCUGUAAGAUUCUGGUGAAUCUGCGAAUUCUGCUGU [G3C C39A] | 0.0598
34 | GGCGGCCACAGCAGAAGCGUUCACGUCGCGGGCCCUGUCAGAUUCUGGUGAAUCUGCGAAUUCUGCUGU [G3C C32G] | 0.0514
35 | GGCGGCCACAGCAGAAGCGUUCACGUCGCGGUCCCUGUCAGAUUCUGGUGAAUCUGCGAAUUCUGCUGU [G3C C32U] | 0.0592
36 | GGUGGACACAGCAGAAGCGUUCACGUCGCGGCCCCUGUCAGAUUCUGGUGAAUCUGCGAAUUCUGCUGU [G3U C6A] | 0.0458
37 | GGCGGCCACAGCAGAAGCGUUCACGUCGCGACCCCUGUCAGAUUCUGGUGAAUCUGCGAAUUCUGCUGU [G3C G31A] | 0.0559
38 | GGCGGCCACAGCAGAAGCGUUCACGUCGCGUCCCCUGUCAGAUUCUGGUGAAUCUGCGAAUUCUGCUGU [G3C G31U] | 0.048
39 | GGCGGCCACAGCAGAAGCGUUCACGUCGCGGCCCCUGUCAGAUUCUGGUGAAUCUGCGAAUUCGGCUGU [G3C U64G] | 0.0913
